The values that follow come from publication PMC5789848 (2018).

The target of assay [1] is T1, GST-Tax_(CACA) (HTLV-1 Tax with C23 and C29 changed to alanine, N-terminal GST fusion) (HTLV-1, UniProt P03409 1-353, C23A | C29A). Put plainly: BLI. On the technique in general: BLI is a label-free optical method that tracks binding on a fibre tip over time.
Assay [2] has as its target T1, GST-Tax_(CACA) (HTLV-1 Tax with C23 and …). The experiment in a line: BLI. The source holds these as a separate data set.

B1: UPF1-HD_(DE636AA), histidine-tagged (domain or fragment)
chain: RYEDAYQYQNIFGPLVKLEADYDKKLKESQTQDNITVRWDLGLNKKRIAYFTLPKTDSDMRLMQGDEICLRYKGDLAPLWKGIGHVIKVPDNYGDEIAIELRSSVGAPVEVTHNFQVDFVWKSTSFDRMQSALKTFAVDETSVSGYIYHKLLGHEVEDVIIKCQLPKRFTAQGLPDLNHSQVYAVKTVLQRPLSLIQGPPGTGKTVTSATIVYHLARQGNGPVLVCAPSNIAVDQLTEKIHQTGLKVVRLCAKSREAIDSPVSFLALHNQIRNMDSMPELQKLQQLKDETGELSSADEKRYRALKRTAERELLMNADVICCTCVGAGDPRLAKMQFRSILIAASTQATEPECMVPVVLGAKQLILVGDHCQLGPVVMCKKAAKAGLSQSLFERLVVLGIRPIRLQVQYRMHPALSAFPSNIFYEGSLQNGVTAADRVKKGFDFQWPQPDKPMFFYVTQGQEEIASSGTSYLNRTEAANVEKITTKLLKAGAKPDQIGIITPYEGQRSYLVQYMQFSGSLHTKLYQEVEIASVDAFQGREKDFIILSCVRANEHQGIGFLNDPRRLNVALTRARYGVIIVGNPKALSKQPLWNHLLNYYKEQKVLVEGPLNNLRESLMQFS
For the molecule B1, the koff (commonly the rate constant with which the complex falls apart) in assay [1] was 0.000283 s⁻¹. Besides, binding in assay [2] was put at a Kd of 31.4 nM.

B2: UPF1-HD_(R843S), histidine-tagged (domain or fragment)
chain: RYEDAYQYQNIFGPLVKLEADYDKKLKESQTQDNITVRWDLGLNKKRIAYFTLPKTDSDMRLMQGDEICLRYKGDLAPLWKGIGHVIKVPDNYGDEIAIELRSSVGAPVEVTHNFQVDFVWKSTSFDRMQSALKTFAVDETSVSGYIYHKLLGHEVEDVIIKCQLPKRFTAQGLPDLNHSQVYAVKTVLQRPLSLIQGPPGTGKTVTSATIVYHLARQGNGPVLVCAPSNIAVDQLTEKIHQTGLKVVRLCAKSREAIDSPVSFLALHNQIRNMDSMPELQKLQQLKDETGELSSADEKRYRALKRTAERELLMNADVICCTCVGAGDPRLAKMQFRSILIDESTQATEPECMVPVVLGAKQLILVGDHCQLGPVVMCKKAAKAGLSQSLFERLVVLGIRPIRLQVQYRMHPALSAFPSNIFYEGSLQNGVTAADRVKKGFDFQWPQPDKPMFFYVTQGQEEIASSGTSYLNRTEAANVEKITTKLLKAGAKPDQIGIITPYEGQRSYLVQYMQFSGSLHTKLYQEVEIASVDAFQGREKDFIILSCVSANEHQGIGFLNDPRRLNVALTRARYGVIIVGNPKALSKQPLWNHLLNYYKEQKVLVEGPLNNLRESLMQFS
With B2, the koff in assay [1] turned out to be 0.000877 s⁻¹. Further, binding in assay [2] was put at a Kd of 66.6 nM.

B3: UPF1 helicase core domain (UPF1-HD; aa 295-914), C-terminal hexahistidine (domain or fragment)
chain: RYEDAYQYQNIFGPLVKLEADYDKKLKESQTQDNITVRWDLGLNKKRIAYFTLPKTDSDMRLMQGDEICLRYKGDLAPLWKGIGHVIKVPDNYGDEIAIELRSSVGAPVEVTHNFQVDFVWKSTSFDRMQSALKTFAVDETSVSGYIYHKLLGHEVEDVIIKCQLPKRFTAQGLPDLNHSQVYAVKTVLQRPLSLIQGPPGTGKTVTSATIVYHLARQGNGPVLVCAPSNIAVDQLTEKIHQTGLKVVRLCAKSREAIDSPVSFLALHNQIRNMDSMPELQKLQQLKDETGELSSADEKRYRALKRTAERELLMNADVICCTCVGAGDPRLAKMQFRSILIDESTQATEPECMVPVVLGAKQLILVGDHCQLGPVVMCKKAAKAGLSQSLFERLVVLGIRPIRLQVQYRMHPALSAFPSNIFYEGSLQNGVTAADRVKKGFDFQWPQPDKPMFFYVTQGQEEIASSGTSYLNRTEAANVEKITTKLLKAGAKPDQIGIITPYEGQRSYLVQYMQFSGSLHTKLYQEVEIASVDAFQGREKDFIILSCVRANEHQGIGFLNDPRRLNVALTRARYGVIIVGNPKALSKQPLWNHLLNYYKEQKVLVEGPLNNLRESLMQFS
Consider B3, for which the koff in assay [1] is 0.00038 s⁻¹. The affinity in assay [2], expressed as Kd, was 16.6 nM.

B4: UPF1-HD_(R843C), histidine-tagged (domain or fragment)
chain: RYEDAYQYQNIFGPLVKLEADYDKKLKESQTQDNITVRWDLGLNKKRIAYFTLPKTDSDMRLMQGDEICLRYKGDLAPLWKGIGHVIKVPDNYGDEIAIELRSSVGAPVEVTHNFQVDFVWKSTSFDRMQSALKTFAVDETSVSGYIYHKLLGHEVEDVIIKCQLPKRFTAQGLPDLNHSQVYAVKTVLQRPLSLIQGPPGTGKTVTSATIVYHLARQGNGPVLVCAPSNIAVDQLTEKIHQTGLKVVRLCAKSREAIDSPVSFLALHNQIRNMDSMPELQKLQQLKDETGELSSADEKRYRALKRTAERELLMNADVICCTCVGAGDPRLAKMQFRSILIDESTQATEPECMVPVVLGAKQLILVGDHCQLGPVVMCKKAAKAGLSQSLFERLVVLGIRPIRLQVQYRMHPALSAFPSNIFYEGSLQNGVTAADRVKKGFDFQWPQPDKPMFFYVTQGQEEIASSGTSYLNRTEAANVEKITTKLLKAGAKPDQIGIITPYEGQRSYLVQYMQFSGSLHTKLYQEVEIASVDAFQGREKDFIILSCVCANEHQGIGFLNDPRRLNVALTRARYGVIIVGNPKALSKQPLWNHLLNYYKEQKVLVEGPLNNLRESLMQFS
With B4, the koff in assay [1] turned out to be 0.000437 s⁻¹. Also, the Kd – broadly, the free concentration of one partner at which half of the binding sites on the other are occupied at equilibrium, for simple one-to-one binding – in assay [2] is 53.8 nM.
